B1: NP_006221.1 (parent)
chain: CQPISFSGFGAEDDDLGGLGLGP
B2: ZBTB22 (parent)
chain: RPFDCPVCNKKFKMKHHLTEHMKT

Variants of: B1
Experiment: protein stability index of a GFP-peptide fusion (GPS, HEK-293T) (PSI 1-6); higher = more stable
Settings: c terminus: native

Protein stability index of substitutions, site by site:
D13: T 2.28, S 2.41, R 2.04, N 2.2, F 2.54, W 2.31
G22: T 2.22, K 4.15, D 2.15, H 2.8, N 3.35, C 2.25, L 2.46, Q 2.27
P23: F 3.04, D 5.01, Y 2.25, W 2.73, I 2.95, G 2.25, S 4.5, A 2.17, R 2.95, L 3.57
G18: H 1.99, L 2.24, S 2.24, C 2.35, Y 2.18, K 1.93, I 2.18
I4: E 2.41, F 2.12, R 2.08, N 2.45
D14: I 2.21, A 2.23, N 2.33, K 2.46, F 2.51, S 2.05, G 2.13, L 2.44, Q 2.11
Q2: H 2.26, P 2.19, C 2.14, D 2.51, A 1.98, G 2.1, E 2.43
L21: D 5.19, A 4.88, S 5.12, E 5.34, N 4.89, V 3.37, I 3.46
D15: G 2.57, L 2.41, C 2.18, M 2.47, Q 2.67, H 2.08
G10: N 2.04, D 2.51, T 1.91, L 2.56, A 2.16, E 2.08, M 2.29
L19: T 3.02, K 1.99, G 2.87, C 2.52, Q 2.39, Y 2.31, V 2.11, W 2.78, M 2.29
S5: E 2.99, L 2.25, K 2.39, N 2.4, W 2.58, F 2.29, Q 2.24, I 2.75
A11: G 2.36, C 2.08, V 2.33
G20: S 2.69, E 2.81, A 2.29, P 3.11, H 2.93, L 3.54, D 2.58, V 3.37
P3: Y 2.01, K 2.05, V 2.14, R 2.06, E 2.46, W 1.94
C1: W 1.91, S 2.17, R 2.31, L 1.97, H 2.17, Q 2.37, V 2.27, F 2.6, I 2.12
L16: H 2.26, Q 2.27, G 2.21, N 2.07, I 2.21, P 2.15, R 2.18, W 2.25, C 2.34, V 2.36
G17: W 2.46, R 1.52, F 2.08, V 1.99, P 2.05, D 2.33, M 1.7, E 2.36, T 2.1, L 2.2
G8: R 2.52, E 2.03, S 2.15, N 2.24, H 1.98
E12: M 2.25, D 2.22, H 2.48, V 2.3, N 2.32, R 2.31, F 2.17, A 2.32
F9: A 2.58, S 2.56, N 2.87, I 2.35, H 2.42, V 2.25, G 3.01
S7: F 2.48, D 3.66, E 2.72, T 2.19, H 3.06, C 2.11, V 2.07, Q 2.48
F6: M 3.53, P 4.41, Y 2.52, Q 4.21, S 3.93

Variants of: B2
Experiment: as above
Settings: c terminus: a fixed tail appended

Protein stability index, by site and new letter:
P6: D 3.46, H 2.27, C 2.21, Y 2.25, Q 2.32, A 2.65, E 2.85, K 2.9, V 2.37, G 2.1, L 2.68, S 2.42, R 2.12, T 2.45, I 2.03, N 2.68, F 2.15, M 2.03, W 1.86
C5: E 3.76, L 2.6, H 2.78, I 2.64, G 3.3, P 3.23, T 3.71, F 2.66, W 2.41, D 3.21, Q 2.94, M 2.9, Y 2.93, V 2.61, R 3.21, A 2.51, K 3.19, S 3.15, N 3
V7: H 3.27, D 2.82, G 3.06, F 3.21, N 2.48, A 2.21, S 2.77, W 2.85, I 3.09, K 2.96, E 3.58, Q 2.45, C 3.91, R 2.39, T 2.47, Y 3, L 2.53, P 2.7, M 2.25
D4: F 2.95, E 3.6, C 3.54, L 2.92, K 3.28, I 3.62, P 1.71, Q 3.46, M 3.5, W 2.6, R 3.1, V 3.54, H 2.87, Y 3.25, N 2.88, A 3.31, T 3.43, S 3.5, G 2.73
P2: A 2.83, W 2.52, M 2.46, T 3.84, E 3.26, L 2.3, G 2.46, D 3.24, N 2.34, Q 2.76, F 2.72, V 2.12, Y 2.6, H 2.97, R 2.12, C 2.19, I 2.37, S 3.39, K 2.83
C8: H 3, L 2.92, Q 2.81, S 3.03, M 2.93, F 2.26, I 2.72, N 2.98, R 3.08, V 3.5, T 3.48, Y 2.9, E 2.97, W 2.42, K 3.34, A 2.99, P 2.62, D 3.25, G 2.8
R1: L 2.35, Y 2.38, D 3.31, I 2.87, M 2.71, F 2.38, Q 2.8, G 3.08, C 3.18, S 2.71, E 3.67, W 2.09, T 2.96, V 2.74, P 3.17, A 3, N 2.64, K 2.74, H 2.88
N9: E 3.36, A 2.95, M 2.54, K 3.23, D 3.13, P 2.43, R 2.03, Q 2.33, L 2.83, I 1.92, C 2.43, S 2.43, F 2.27, G 3.59, H 3.23
F3: V 2.85, W 2.57, E 2.6, D 2.93, S 2.58, H 2.56, Q 2.86, C 2.98, R 1.98, P 2.74, L 2.35, T 3.09, Y 3.1, M 2.45, G 2.49, K 2.61, A 2.58, I 2.55, N 3.06
